Experimental findings from publication PMC5065529, “Wnt Signalosome Assembly by DEP Domain Swapping of Dishevelled” (Molecular Cell, 2016) are described below.

First the molecules themselves.
B1: SNAP-FZD5 (Frizzled 5), wild type [human] / DEP_(414–507)-GFP, minimal DEP domain of DVL2 [human] (parent)
chain 1: GRGLSVHTDMASVTKAMAAPESGLEVRDRMWLKITIPNAFLGSDVVDWLYHHVEGFPERREARKYASGLLKAGLIRHTVNKITFSEQCYYVFGD
chain 2: ASKAPVCQEITVPMCRGIGYNLTHMPNQFNHDTQDEAGLEVHQFWPLVEIQCSPDLRFFLCSMYTPICLPDYHKPLPPCRSVCERAKAGCSPLMRQYGFAWPERMSCDRLPVLGRDAEVLCMDYNRSEATTAPPRPFPAKPTLPGPPGAPASGGECPAGGPFVCKCREPFVPILKESHPLYNKVRTGQVPNCAVPCYQPSFSADERTFATFWIGLWSVLCFISTSTTVATFLIDMERFRYPERPIIFLSACYLCVSLGFLVRLVVGHASVACSREHNHIHYETTGPALCTIVFLLVYFFGMASSIWWVILSLTWFLAAGMKWGNEAIAGYAQYFHLAAWLIPSVKSITALALSSVDGDPVAGICYVGNQNLNSLRGFVLGPLVLYLLVGTLFLLAGFVSLFRIRSVIKQGGTKTDKLEKLMIRIGIFTLLYTVPASIVVACYLYEQHYRESWEAALTCACPGHDTGQPRAKPEYWVLMLKYFMCLVVGITSGVWIWSGKTVESWRRFTSRCCCRPRRGHKSGGAMAAGDYPEASAALTGRTGPPGPAATYHKQVSLSHV

This test covers variants of B1. The test can be described thus: FZD5-dependent PM recruitment of DEP-GFP (cell scoring). To be noted: with DEP_(414–507)-GFP, 100 cells scored in each case.

In the case of chain 2 ASKAPVCQEITVPMCRGIGYNLTHMPNQFNHDTQDEAGLEVHQFWPLVEIQCSPDLRFFLCSMYTPICLPDYHKPLPPCRSVCERAKAGCSPLMRQYGFAWPERMSCDRLPVLGRDAEVLCMDYNRSEATTAPPRPFPAKPTLPGPPGAPASGGECPAGGPFVCKCREPFVPILKESHPLYNKVRTGQVPNCAVPCYQPSFSADERTFATFWIGLWSVLCFISTSTTVATFLIDMERFRYPERPIIFLSACYLCVSLGFLVRLVVGHASVACSREHNHIHYETTGPALCTIVFLLVYFFGMASSIWWVILSLTWFLAAGMKWGNEAIAGYAQYFHLAAWLIPSVKSITALALSSVDGDPVAGICYVGNQNLNSLRGFVLGPLVLYLLVGTLFLLAGFVSLFRIRSVIKQGGTKTDKLEKLMIRIGIFTLLYTVPASIVVACYLYEQHYRESWEAALTCACPGHDTGQPRAKPEYWVLMLKYFMCLVVGITSGVWIWSGKAVESWRRFTSRCCCRPRRGHKSGGAMAAGDYPEASAALTGRTGPPGPAATYHKQVSLSHV [chain 2 T500A], the screen value (parent: 52, read off a plot) is 6 % of cells and the screen value (parent: 88, read off a plot) was 36 % of cells.

Turning to chain 2 ASKAPVCQEITVPMCRGIGYNLTHMPNQFNHDTQDEAGLEVHQFWPLVEIQCSPDLRFFLCSMYTPICLPDYHKPLPPCRSVCERAKAGCSPLMRQYGFAWPERMSCDRLPVLGRDAEVLCMDYNRSEATTAPPRPFPAKPTLPGPPGAPASGGECPAGGPFVCKCREPFVPILKESHPLYNKVRTGQVPNCAVPCYQPSFSADERTFATFWIGLWSVLCFISTSTTVATFLIDMERFRYPERPIIFLSACYLCVSLGFLVRLVVGHASVACSREHNHIHYETTGPALCTIVFLLVYFFGMASSIWWVILSLTWFLAAGMKWGNEAIAGYAQYFHLAAWLIPSVKSITALALSSVDGDPVAGICYVGNQNLNSLRGFVLGPLVLYLLVGTLFLLAGFVSLFRARSVIKQGGTKTDKLEKLMIRIGIFTLLYTVPASIVVACYLYEQHYRESWEAALTCACPGHDTGQPRAKPEYWVLMLKYFMCLVVGITSGVWIWSGKTVESWRRFTSRCCCRPRRGHKSGGAMAAGDYPEASAALTGRTGPPGPAATYHKQVSLSHV [chain 2 I403A], the screen value was 34 % of cells (parent: 52, read off a plot) and 70 % of cells (parent: 88, read off a plot).

For chain 2 ASKAPVCQEITVPMCRGIGYNLTHMPNQFNHDTQDEAGLEVHQFWPLVEIQCSPDLRFFLCSMYTPICLPDYHKPLPPCRSVCERAKAGCSPLMRQYGFAWPERMSCDRLPVLGRDAEVLCMDYNRSEATTAPPRPFPAKPTLPGPPGAPASGGECPAGGPFVCKCREPFVPILKESHPLYNKVRTGQVPNCAVPCYQPSFSADERTFATFWIGLWSVLCFISTSTTVATFLIDMERFRYPERPIIFLSACYLCVSLGFLVRLVVGHASVACSREHNHIHYETTGPALCTIVFLLVYFFGMASSIWWVILSLTWFLAAGMKWGNEAIAGYAQYFHLAAWLIPSVKSITALALSSVDGDPVAGICYVGNQNLNSLRGFVLGPLVLYLLVGTLFLLAGFVSLFRIRSVIKQGGTKTDKLEKLMIRIGIFTLLYTVPASIVVACYLYEQHYRESWEAALTCACPGHDTGQPRAKPEYWVLMLKYFMCLVVGITSGVWIWSGATVESWRRFTSRCCCRPRRGHKSGGAMAAGDYPEASAALTGRTGPPGPAATYHKQVSLSHV [chain 2 K499A], the screen value is, setting by setting: (parent: 52, read off a plot) 5 % of cells; (parent: 88, read off a plot) 62 % of cells.

Regarding chain 2 ASKAPVCQEITVPMCRGIGYNLTHMPNQFNHDTQDEAGLEVHQFWPLVEIQCSPDLRFFLCSMYTPICLPDYHKPLPPCRSVCERAKAGCSPLMRQYGFAWPERMSCDRLPVLGRDAEVLCMDYNRSEATTAPPRPFPAKPTLPGPPGAPASGGECPAGGPFVCKCREPFVPILKESHPLYNKVRTGQVPNCAVPCYQPSFSADERTFATFWIGLWSVLCFISTSTTVATFLIDMERFRYPERPIIFLSACYLCVSLGFLVRLVVGHASVACSREHNHIHYETTGPALCTIVFLLVYFFGMASSIWWVILSLTWFLAAGMKWGNEAIAGYAQYFHLAAWLIPSVKSITALALSSVDGDPVAGICYVGNQNLNSLRGFVLGPLVLYLLVGTLFLLAGFVSLFRIRSVIKQGGTKTDKLEKLMIRIGIFTLLYTVPASIVVACYLYEQHYRESWEAALTCACPGHDTGQPRAKPEYWVLMLKYFMCLVVGITSGVWIWSGKTVESWRRFTSACCCRPRRGHKSGGAMAAGDYPEASAALTGRTGPPGPAATYHKQVSLSHV [chain 2 R510A], the screen value is, setting by setting: (parent: 52, read off a plot) 49 % of cells; (parent: 88, read off a plot) 85 % of cells.

chain 2 ASKAPVCQEITVPMCRGIGYNLTHMPNQFNHDTQDEAGLEVHQFWPLVEIQCSPDLRFFLCSMYTPICLPDYHKPLPPCRSVCERAKAGCSPLMRQYGFAWPERMSCDRLPVLGRDAEVLCMDYNRSEATTAPPRPFPAKPTLPGPPGAPASGGECPAGGPFVCKCREPFVPILKESHPLYNKVRTGQVPNCAVPCYQPSFSADERTFATFWIGLWSVLCFISTSTTVATFLIDMERFRYPERPIIFLSACYLCVSLGFLVRLVVGHASVACSREHNHIHYETTGPALCTIVFLLVYFFGMASSIWWVILSLTWFLAAGMKWGNEAIAGYAQYFHLAAWLIPSVKSITALALSSVDGDPVAGICYVGNQNLNSLRGFVLGPLVLYLLVGTLFLLAGFVSLFRIRSVIKQGGTKTDKLEKLMIRIGIFTLLYTVPASIVVACYLYEQHYRESWEAALTCACPGHDTGQPRAKPEYWVLMLKYFMCLVVGITSGVWIWSGKTVESWRRFTARCCCRPRRGHKSGGAMAAGDYPEASAALTGRTGPPGPAATYHKQVSLSHV [chain 2 S509A]: the screen value runs as follows: (parent: 52, read off a plot) 52 % of cells; (parent: 88, read off a plot) 88 % of cells.

In the case of chain 2 ASKAPVCQEITVPMCRGIGYNLTHMPNQFNHDTQDEAGLEVHQFWPLVEIQCSPDLRFFLCSMYTPICLPDYHKPLPPCRSVCERAKAGCSPLMRQYGFAWPERMSCDRLPVLGRDAEVLCMDYNRSEATTAPPRPFPAKPTLPGPPGAPASGGECPAGGPFVCKCREPFVPILKESHPLYNKVRTGQVPNCAVPCYQPSFSADERTFATFWIGLWSVLCFISTSTTVAAFLIDMERFRYPERPIIFLSACYLCVSLGFLVRLVVGHASVACSREHNHIHYETTGPALCTIVFLLVYFFGMASSIWWVILSLTWFLAAGMKWGNEAIAGYAQYFHLAAWLIPSVKSITALALSSVDGDPVAGICYVGNQNLNSLRGFVLGPLVLYLLVGTLFLLAGFVSLFRIRSVIKQGGTKTDKLEKLMIRIGIFTLLYTVPASIVVACYLYEQHYRESWEAALTCACPGHDTGQPRAKPEYWVLMLKYFMCLVVGITSGVWIWSGKTVESWRRFTSRCCCRPRRGHKSGGAMAAGDYPEASAALTGRTGPPGPAATYHKQVSLSHV [chain 2 T230A], the screen value was 1 % of cells (parent: 52, read off a plot) and 12 % of cells (parent: 88, read off a plot).
